According to PMC6888877, “Deconstructing and repurposing the light-regulated interplay between Arabidopsis phytochromes and interacting factors” (Communications Biology, 2019):

What was measured:
Assay in all cases: SEC; 50 µM AtPhyB PCM + 10 µM AtPIF-EYFP (5:1), illuminated with red light (650 nm, 2 min; results say 640 nm), Pfr state; Superdex 200 Increase 10/300 GL; 67 mM sodium phosphate pH 8.0, 200 mM NaCl
Settings in all cases: both partners purified
[1] = target: T1, P3.As-EYFP (Arabidopsis thaliana)
T1 chain: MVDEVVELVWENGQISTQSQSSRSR

[2] = target: T2, P3 (AtPIF3 1-100 without the N-terminal region preceding APB.A)-EYFP (Arabidopsis thaliana)
T2 chain: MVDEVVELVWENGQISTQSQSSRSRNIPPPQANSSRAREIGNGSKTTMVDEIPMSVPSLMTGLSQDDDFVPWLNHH

[3] = target: T3, P6.A-EYFP (Arabidopsis thaliana)
T3 chain: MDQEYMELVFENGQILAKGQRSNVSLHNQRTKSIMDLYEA

[4] = target: T4, P3.AAfus-EYFP (Arabidopsis thaliana)
T4 chain: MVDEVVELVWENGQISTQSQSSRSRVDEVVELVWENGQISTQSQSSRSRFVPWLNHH

[5] = target: T5, P3.AA-EYFP (Arabidopsis thaliana)
T5 chain: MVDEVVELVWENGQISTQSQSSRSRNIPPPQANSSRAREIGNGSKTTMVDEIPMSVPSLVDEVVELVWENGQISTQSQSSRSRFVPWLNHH

[6] = target: T6, P6.As-EYFP (Arabidopsis thaliana)
T6 chain: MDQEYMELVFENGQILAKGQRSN

[7] = target: T7, AtPIF3 (1-100)-EYFP, P3.100 (Arabidopsis thaliana, UniProt O80536 1-100)
T7 construct: A. thaliana PIF3, residues 1-100; His6-SUMO only on the pET-19b construct that was purified; the pET-28c construct used in lysate has the same AtPIF part, linker and EYFP; also called P3.100-EYFP; source: E. coli BL21(DE3): in crude lysate (pET-28c), and purified (pET-19b; IMAC, SENP2 cleavage, second IMAC, optional anion exchange); not shown: His6-SUMO, N-terminal, cleaved
T7 sequence (looked up): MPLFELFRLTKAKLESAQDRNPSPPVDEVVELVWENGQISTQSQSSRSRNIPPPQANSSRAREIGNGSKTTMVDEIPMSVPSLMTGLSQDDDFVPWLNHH

[8] = target: T8, AtPIF6 (1-100)-EYFP, P6.100 (Arabidopsis thaliana, UniProt Q8L5W7 1-100)
T8 construct: A. thaliana PIF6, residues 1-100; His6-SUMO only on the pET-19b construct that was purified; the pET-28c construct used in lysate has the same AtPIF part, linker and EYFP; also called P6.100-EYFP; source: E. coli BL21(DE3): in crude lysate (pET-28c), and purified (pET-19b; IMAC, SENP2 cleavage, second IMAC, optional anion exchange); not shown: His6-SUMO, N-terminal, cleaved
T8 sequence (looked up): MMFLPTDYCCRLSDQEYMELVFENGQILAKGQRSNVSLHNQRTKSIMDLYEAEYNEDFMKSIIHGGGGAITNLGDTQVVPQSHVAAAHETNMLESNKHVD

[9] = target: T9, P3.fus-EYFP (Arabidopsis thaliana)
T9 chain: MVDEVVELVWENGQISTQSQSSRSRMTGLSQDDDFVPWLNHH

[10] = target: T10, P3.A-EYFP (Arabidopsis thaliana)
T10 chain: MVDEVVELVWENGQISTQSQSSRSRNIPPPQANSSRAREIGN

[11] = target: T11, P6 (AtPIF6 1-100 without the N-terminal region preceding APB.A)-EYFP (Arabidopsis thaliana)
T11 chain: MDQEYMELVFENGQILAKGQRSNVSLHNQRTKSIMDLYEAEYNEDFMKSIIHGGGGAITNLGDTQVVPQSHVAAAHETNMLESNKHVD

stoichiometry N [1]: 1 | stoichiometry N [2]: 1 | stoichiometry N [3]: 1 | stoichiometry N [4]: 1 | stoichiometry N [5]: 1 | stoichiometry N [6]: 1 | stoichiometry N [7]: 1 | stoichiometry N [8]: 1 | stoichiometry N [9]: 1 | stoichiometry N [10]: 1 | stoichiometry N [11]: 1
B1: Arabidopsis thaliana phytochrome B photosensory core module (AtPhyB PCM) (domain or fragment, UniProt P14713 1-651, looked up)
chain: MVSGVGGSGGGRGGGRGGEEEPSSSHTPNNRRGGEQAQSSGTKSLRPRSNTESMSKAIQQYTVDARLHAVFEQSGESGKSFDYSQSLKTTTYGSSVPEQQITAYLSRIQRGGYIQPFGCMIAVDESSFRIIGYSENAREMLGIMPQSVPTLEKPEILAMGTDVRSLFTSSSSILLERAFVAREITLLNPVWIHSKNTGKPFYAILHRIDVGVVIDLEPARTEDPALSIAGAVQSQKLAVRAISQLQALPGGDIKLLCDTVVESVRDLTGYDRVMVYKFHEDEHGEVVAESKRDDLEPYIGLHYPATDIPQASRFLFKQNRVRMIVDCNATPVLVVQDDRLTQSMCLVGSTLRAPHGCHSQYMANMGSIASLAMAVIINGNEDDGSNVASGRSSMRLWGLVVCHHTSSRCIPFPLRYACEFLMQAFGLQLNMELQLALQMSEKRVLRTQTLLCDMLLRDSPAGIVTQSPSIMDLVKCDGAAFLYHGKYYPLGVAPSEVQIKDVVEWLLANHADSTGLSTDSLGDAGYPGAAALGDAVCGMAVAYITKRDFLFWFRSHTAKEIKWGGAKHHPEDKDDGQRMHPRSSFQAFLEVVKSRSQPWETAEMDAIHSLQLILRDSFKESEAAMNSKVVDGVVQPCRDMAGEQGIDELGA
modifications: covalently incorporated bilin chromophore (PCB; co-expressed Synechocystis sp. heme oxygenase 1 and pcyA)
notes: A. thaliana phytochrome B, photosensory core module (PAS-GAF-PHY with N-terminal extension), residues 1-651; Pr state (far-red light or dark) and Pfr state (red light; Pfr/Pr about 0.56/0.44) are told apart by the assays; In the cell experiments other constructs were used (PCM-VP16; PCM 1-650 with CAAX); source: E. coli BL21(DE3), plasmid pDG282, purified (Ni-NTA IMAC, anion exchange)
